In the test the target is endogenous AMPKα (5'-adenosine monophosphate-activated protein kinase, α subunit), Q13131. Briefly: co-immunoprecipitation, quantified band intensity. Particulars: chain shown with the change, n=2 (WT n=3), read off a plot.
endogenous AMPKα (5'-adenosine monophosphate-activated protein kinase, α subunit), Q13131, sequence (Q13131 whole entry): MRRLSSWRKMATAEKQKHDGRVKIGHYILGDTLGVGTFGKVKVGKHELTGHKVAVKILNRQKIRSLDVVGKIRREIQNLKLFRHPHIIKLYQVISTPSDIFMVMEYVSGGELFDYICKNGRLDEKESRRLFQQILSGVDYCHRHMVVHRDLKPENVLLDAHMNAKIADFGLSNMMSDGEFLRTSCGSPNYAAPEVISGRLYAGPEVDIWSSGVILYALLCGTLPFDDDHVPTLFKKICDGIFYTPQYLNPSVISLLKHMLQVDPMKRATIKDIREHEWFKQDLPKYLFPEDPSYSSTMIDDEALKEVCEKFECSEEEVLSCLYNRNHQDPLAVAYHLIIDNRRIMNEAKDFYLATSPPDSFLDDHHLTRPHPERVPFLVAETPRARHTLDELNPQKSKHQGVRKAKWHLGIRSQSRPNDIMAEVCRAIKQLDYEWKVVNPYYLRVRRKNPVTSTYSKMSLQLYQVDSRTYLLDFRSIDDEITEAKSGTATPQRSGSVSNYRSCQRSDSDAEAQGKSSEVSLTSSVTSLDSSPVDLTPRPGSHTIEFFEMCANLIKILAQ

B1: myc-tagged ULK1 (UNC-51 like kinase 1), wild type, O75385 S556A; T660A (protein)
chain: MEPGRGGTETVGKFEFSRKDLIGHGAFAVVFKGRHREKHDLEVAVKCINKKNLAKSQTLLGKEIKILKELKHENIVALYDFQEMANSVYLVMEYCNGGDLADYLHAMRTLSEDTIRLFLQQIAGAMRLLHSKGIIHRDLKPQNILLSNPAGRRANPNSIRVKIADFGFARYLQSNMMAATLCGSPMYMAPEVIMSQHYDGKADLWSIGTIVYQCLTGKAPFQASSPQDLRLFYEKNKTLVPTIPRETSAPLRQLLLALLQRNHKDRMDFDEFFHHPFLDASPSVRKSPPVPVPSYPSSGSGSSSSSSSTSHLASPPSLGEMQQLQKTLASPADTAGFLHSSRDSGGSKDSSCDTDDFVMVPAQFPGDLVAEAPSAKPPPDSLMCSGSSLVASAGLESHGRTPSPSPPCSSSPSPSGRAGPFSSSRCGASVPIPVPTQVQNYQRIERNLQSPTQFQTPRSSAIRRSGSTSPLGFARASPSPPAHAEHGGVLARKMSLGGGRPYTPSPQVGTIPERPGWSGTPSPQGAEMRGGRSPRPGSSAPEHSPRTSGLGCRLHAAPNLSDLHVVRPKLPKPPTDPLGAVFSPPQASPPQPSHGLQSCRNLRGSPKLPDFLQRNPLPPILGSPTKAVPSFDFPKTPSSQNLLALLARQGVVMTPPRNRALPDLSEVGPFHGQPLGPGLRPGEDPKGPFGRSFSTSRLTDLLLKAAFGTQAPDPGSTESLQEKPMEIAPSAGFGGSLHPGARAGGTSSPSPVVFTVGSPPSGSTPPQGPRTRMFSAGPTGSASSSARHLVPGPCSEAPAPELPAPGHGCSFADPITANLEGAVTFEAPDLPEETLMEQEHTEILRGLRFTLLFVQHVLEIAALKGSASEAAGGPEYQLQESVVADQISLLSREWGFAEQLVLYLKVAELLSSGLQSAIDQIRAGKLCLSSTVKQVVRRLNELYKASVVSCQGLSLRLQRFFLDKQRLLDRIHSITAERLIFSHAVQMVQSAALDEMFQHREGCVPRYHKALLLLEGLQHMLSDQADIENVTKCKLCIERRLSALLTGICA
For B1, the response (relative AMPK-ULK1 interaction) was 1 (amino acids +, A769662 +, parent: est. 1.2); 0.4 (amino acids +, A769662 -, parent: est. 1.0); 0.15 (amino acids -, A769662 +, parent: est. 1.1); 0.1 (amino acids -, A769662 -, parent: est. 0.25).

The values are drawn from article PMC10209092.
